The chains are these.
B1: Receptor-type tyrosine-protein phosphatase T (Homo sapiens), O14522-1 (parent)
chain: MASLAALALSLLLRLQLPPLPGARAQSAAGGCSFDEHYSNCGYSVALGTNGFTWEQINTWEKPMLDQAVPTGSFMMVNSSGRASGQKAHLLLPTLKENDTHCIDFHYYFSSRDRSSPGALNVYVKVNGGPQGNPVWNVSGVVTEGWVKAELAISTFWPHFYQVIFESVSLKGHPGYIAVDEVRVLAHPCRKAPHFLRLQNVEVNVGQNATFQCIAGGKWSQHDKLWLQQWNGRDTALMVTRVVNHRRFSATVSVADTAQRSVSKYRCVIRSDGGSGVSNYAELIVKEPPTPIAPPELLAVGATYLWIKPNANSIIGDGPIILKEVEYRTTTGTWAETHIVDSPNYKLWHLDPDVEYEIRVLLTRPGEGGTGPPGPPLTTRTKCADPVHGPQNVEIVDIRARQLTLQWEPFGYAVTRCHSYNLTVQYQYVFNQQQYEAEEVIQTSSHYTLRGLRPFMTIRLRLLLSNPEGRMESEELVVQTEEDVPGAVPLESIQGGPFEEKIYIQWKPPNETNGVITLYEINYKAVGSLDPSADLSSQRGKVFKLRNETHHLFVGLYPGTTYSFTIKASTAKGFGPPVTTRIATKISAPSMPEYDTDTPLNETDTTITVMLKPAQSRGAPVSVYQLVVKEERLQKSRRAADIIECFSVPVSYRNASSLDSLHYFAAELKPANLPVTQPFTVGDNKTYNGYWNPPLSPLKSYSIYFQALSKANGETKINCVRLATKAPMGSAQVTPGTPLCLLTTGASTQNSNTVEPEKQVDNTVKMAGVIAGLLMFIIILLGVMLTIKRRRNAYSYSYYLSQRKLAKKQKETQSGAQREMGPVASADKPTTKLSASRNDEGFSSSSQDVNGFTDGSRGELSQPTLTIQTHPYRTCDPVEMSYPRDQFQPAIRVADLLQHITQMKRGQGYGFKEEYEALPEGQTASWDTAKEDENRNKNRYGNIISYDHSRVRLLVLDGDPHSDYINANYIDGYHRPRHYIATQGPMQETVKDFWRMIWQENSASIVMVTNLVEVGRVKCVRYWPDDTEVYGDIKVTLIETEPLAEYVIRTFTVQKKGYHEIRELRLFHFTSWPDHGVPCYATGLLGFVRQVKFLNPPEAGPIVVHCSAGAGRTGCFIAIDTMLDMAENEGVVDIFNCVRELRAQRVNLVQTEEQYVFVHDAILEACLCGNTAIPVCEFRSLYYNISRLDPQTNSSQIKDEFQTLNIVTPRVRPEDCSIGLLPRNHDKNRSMDVLPLDRCLPFLISVDGESSNYINAALMDSHKQPAAFVVTQHPLPNTVADFWRLVFDYNCSSVVMLNEMDTAQFCMQYWPEKTSGCYGPIQVEFVSADIDEDIIHRIFRICNMARPQDGYRIVQHLQYIGWPAYRDTPPSKRSLLKVVRRLEKWQEQYDGREGRTVVHCLNGGGRSGTFCAICSVCEMIQQQNIIDVFHIVKTLRNNKSNMVETLEQYKFVYEVALEYLSSF

The values below come from IntAct's records for PubMed 17360477.

The experiment covers variants of B1. Conditions: with stat3_human STAT3, P40763.
stat3_human STAT3, P40763, sequence (P40763 whole entry): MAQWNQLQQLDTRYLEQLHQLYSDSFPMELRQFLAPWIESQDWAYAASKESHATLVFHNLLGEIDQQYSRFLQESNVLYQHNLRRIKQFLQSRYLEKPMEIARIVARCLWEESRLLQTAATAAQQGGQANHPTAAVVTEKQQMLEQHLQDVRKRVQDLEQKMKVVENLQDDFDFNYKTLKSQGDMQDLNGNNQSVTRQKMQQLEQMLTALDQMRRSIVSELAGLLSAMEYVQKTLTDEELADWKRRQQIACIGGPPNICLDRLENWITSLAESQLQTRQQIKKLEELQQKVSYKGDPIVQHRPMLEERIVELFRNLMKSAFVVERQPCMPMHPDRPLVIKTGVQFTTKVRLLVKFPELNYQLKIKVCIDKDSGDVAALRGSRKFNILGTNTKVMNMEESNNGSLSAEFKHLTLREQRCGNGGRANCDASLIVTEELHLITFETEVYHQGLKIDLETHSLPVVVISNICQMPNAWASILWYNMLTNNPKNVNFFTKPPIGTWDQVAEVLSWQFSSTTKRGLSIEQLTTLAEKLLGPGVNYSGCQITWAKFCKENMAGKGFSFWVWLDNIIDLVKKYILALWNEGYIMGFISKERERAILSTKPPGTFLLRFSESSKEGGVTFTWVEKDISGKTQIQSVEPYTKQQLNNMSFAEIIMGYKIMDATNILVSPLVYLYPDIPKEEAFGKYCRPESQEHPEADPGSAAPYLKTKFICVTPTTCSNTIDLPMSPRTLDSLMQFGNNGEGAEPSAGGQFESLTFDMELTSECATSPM
Consider D1074A, for which the “effect of a mutation on the interaction” value is given as “increasing interaction strength”. D1074A;C1106S: the “effect of a mutation on the interaction” value was “increasing interaction strength”.
